Measurements from patent US20200157212A1 (Pfizer, published 2020).
Residue numbers refer to the chain shown, from its start.

T1: Terbium (Tb) labeled-SNAP tagged ROBO2 expressed on HEK293 cells (Homo sapiens (Human), UniProt Q9HCK4 22-1378, terbium label on the SNAP tag)
T1 construct: also called Tb-labeled ROBO2 cells; ROBO2 expressing cells; not shown: SNAP tag
T1 sequence: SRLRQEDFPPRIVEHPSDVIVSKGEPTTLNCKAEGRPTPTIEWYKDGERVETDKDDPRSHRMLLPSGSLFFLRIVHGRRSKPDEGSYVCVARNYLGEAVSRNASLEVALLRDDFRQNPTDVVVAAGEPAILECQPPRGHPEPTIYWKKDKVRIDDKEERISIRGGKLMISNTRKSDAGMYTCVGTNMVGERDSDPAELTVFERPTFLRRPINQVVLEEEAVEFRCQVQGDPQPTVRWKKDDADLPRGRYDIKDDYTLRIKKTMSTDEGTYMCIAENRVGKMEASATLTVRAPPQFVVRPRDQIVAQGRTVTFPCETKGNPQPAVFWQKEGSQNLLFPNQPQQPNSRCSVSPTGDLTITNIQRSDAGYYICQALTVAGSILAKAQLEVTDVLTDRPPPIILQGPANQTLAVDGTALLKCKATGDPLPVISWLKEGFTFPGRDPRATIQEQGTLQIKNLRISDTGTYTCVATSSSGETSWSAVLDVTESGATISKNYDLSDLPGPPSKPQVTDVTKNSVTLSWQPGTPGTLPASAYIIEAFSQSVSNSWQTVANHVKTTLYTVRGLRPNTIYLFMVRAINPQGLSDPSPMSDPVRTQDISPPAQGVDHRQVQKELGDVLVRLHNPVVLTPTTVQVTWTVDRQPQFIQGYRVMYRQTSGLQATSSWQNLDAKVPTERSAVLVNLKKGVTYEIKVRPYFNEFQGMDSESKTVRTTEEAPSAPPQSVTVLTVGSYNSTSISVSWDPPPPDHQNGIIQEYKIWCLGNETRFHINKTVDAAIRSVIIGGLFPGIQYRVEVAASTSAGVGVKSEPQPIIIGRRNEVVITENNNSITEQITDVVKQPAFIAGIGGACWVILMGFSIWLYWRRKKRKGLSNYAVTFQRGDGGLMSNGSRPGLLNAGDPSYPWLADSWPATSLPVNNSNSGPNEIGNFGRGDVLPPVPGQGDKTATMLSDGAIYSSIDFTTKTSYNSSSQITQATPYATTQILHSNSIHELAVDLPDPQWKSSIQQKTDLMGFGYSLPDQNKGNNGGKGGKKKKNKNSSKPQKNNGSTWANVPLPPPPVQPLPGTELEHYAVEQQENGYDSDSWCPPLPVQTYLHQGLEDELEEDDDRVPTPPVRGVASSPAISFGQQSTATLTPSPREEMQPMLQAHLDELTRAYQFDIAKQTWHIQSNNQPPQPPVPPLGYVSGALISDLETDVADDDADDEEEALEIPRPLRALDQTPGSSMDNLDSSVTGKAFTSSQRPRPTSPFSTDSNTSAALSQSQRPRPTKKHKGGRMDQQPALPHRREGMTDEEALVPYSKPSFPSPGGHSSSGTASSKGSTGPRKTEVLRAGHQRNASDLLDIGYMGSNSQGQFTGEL

T2: Human ROBO2 Ig1-Ig2-His (human, UniProt Q9HCK4 31-220)
T2 construct: the His tag is named only in the SPR paragraphs; the Octet and ELISA paragraphs print 'ROBO2 Ig1-Ig2' without a tag; also called ROBO2 Ig1-2; Human ROBO2 Ig 1,2
T2 sequence: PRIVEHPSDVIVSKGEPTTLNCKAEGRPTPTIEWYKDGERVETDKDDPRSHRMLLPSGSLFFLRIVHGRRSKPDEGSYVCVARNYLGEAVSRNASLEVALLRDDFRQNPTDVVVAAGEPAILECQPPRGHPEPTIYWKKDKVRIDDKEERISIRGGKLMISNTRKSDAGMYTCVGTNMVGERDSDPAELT

B1: Abcs35-A (antibody, human IgG1, kappa)
heavy: EVQLVQSGAEVKKPGASVKVSCKASGYTFTGYYMHWVRQAPGQGLEWMGWINPKNGDTEFPQKFQGRVTMTRDTSITTAYMDLSRLRSDDTAVYYCARESGDDAFDIWGQGTMVTVSSASTKGPSVFPLAPSSKSTSGGTAALGCLVKDYFPEPVTVSWNSGALTSGVHTFPAVLQSSGLYSLSSVVTVPSSSLGTQTYICNVNHKPSNTKVDKKVEPKSCDKTHTCPPCPAPEAAGAPSVFLFPPKPKDTLMISRTPEVTCVVVDVSHEDPEVKFNWYVDGVEVHNAKTKPREEQYNSTYRVVSVLTVLHQDWLNGKEYKCKVSNKALPAPIEKTISKAKGQPREPQVYTLPPSREEMTKNQVSLTCLVKGFYPSDIAVEWESNGQPENNYKTTPPVLDSDGSFFLYSKLTVDKSRWQQGNVFSCSVMHEALHNHYTQKSLSLSPGK
light: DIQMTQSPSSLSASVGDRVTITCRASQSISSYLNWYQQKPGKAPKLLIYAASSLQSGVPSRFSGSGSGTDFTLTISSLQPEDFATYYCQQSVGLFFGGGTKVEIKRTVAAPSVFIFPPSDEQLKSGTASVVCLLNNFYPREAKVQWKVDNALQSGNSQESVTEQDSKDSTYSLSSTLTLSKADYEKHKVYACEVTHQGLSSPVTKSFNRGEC
notes: germlined variant of Abcs35; also called Abcs-A
B2: Abcs35-M (antibody, human IgG1, kappa)
heavy: B1 heavy with E1Q, T77S
light: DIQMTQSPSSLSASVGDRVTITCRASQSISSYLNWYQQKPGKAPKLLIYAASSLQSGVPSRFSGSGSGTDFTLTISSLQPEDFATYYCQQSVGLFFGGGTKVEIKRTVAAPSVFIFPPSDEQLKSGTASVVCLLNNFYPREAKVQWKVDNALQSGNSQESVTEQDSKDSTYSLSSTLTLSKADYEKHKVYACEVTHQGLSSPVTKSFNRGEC
notes: germlined variant of Abcs35
B3: Abcs35-K (antibody, human IgG1, kappa)
heavy: B1 heavy with T77S, D82E
light: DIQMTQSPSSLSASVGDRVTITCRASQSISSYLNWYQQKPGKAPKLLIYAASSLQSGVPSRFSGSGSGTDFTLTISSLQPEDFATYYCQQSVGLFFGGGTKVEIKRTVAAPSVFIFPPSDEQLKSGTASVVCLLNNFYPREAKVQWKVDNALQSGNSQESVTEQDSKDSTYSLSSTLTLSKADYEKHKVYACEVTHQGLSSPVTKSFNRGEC
notes: germlined variant of Abcs35
B4: Abcs35-E (antibody, human IgG1, kappa)
heavy: B1 heavy with E1Q
light: DIVMTQSPSSLSASVGDRVTITCRASQSISSYLNWYQQKPGKAPKLLIYAASSLQSGVPSRFSGSGSGTDFTLTISSLQPEDFATYYCQQSVGLFFGGGTKVEIKRTVAAPSVFIFPPSDEQLKSGTASVVCLLNNFYPREAKVQWKVDNALQSGNSQESVTEQDSKDSTYSLSSTLTLSKADYEKHKVYACEVTHQGLSSPVTKSFNRGEC
notes: germlined variant of Abcs35; also called Abcs35-eE
B5: Abcs35-F (antibody, human IgG1, kappa)
heavy: B1 heavy with E1Q, T77S
light: B4 light
notes: germlined variant of Abcs35
B6: Abcs35-I (antibody, human IgG1, kappa)
heavy: B1 heavy with T77S
light: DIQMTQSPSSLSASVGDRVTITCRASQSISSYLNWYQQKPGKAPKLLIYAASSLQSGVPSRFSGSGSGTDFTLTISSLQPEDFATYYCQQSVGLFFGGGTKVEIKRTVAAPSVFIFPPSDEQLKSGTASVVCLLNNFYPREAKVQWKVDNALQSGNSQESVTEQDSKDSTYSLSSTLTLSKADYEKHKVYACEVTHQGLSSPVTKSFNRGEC
notes: germlined variant of Abcs35
B7: Abcs35-H (antibody, human IgG1, kappa)
heavy: B1 heavy with E1Q, T77S, D82E
light: B4 light
notes: germlined variant of Abcs35
B8: Abcs35-B (antibody, human IgG1, kappa)
heavy: B1 heavy with T77S
light: B4 light
notes: germlined variant of Abcs35
B9: Abcs35-O (antibody, human IgG1, kappa)
heavy: B1 heavy with E1Q, T77S, D82E
light: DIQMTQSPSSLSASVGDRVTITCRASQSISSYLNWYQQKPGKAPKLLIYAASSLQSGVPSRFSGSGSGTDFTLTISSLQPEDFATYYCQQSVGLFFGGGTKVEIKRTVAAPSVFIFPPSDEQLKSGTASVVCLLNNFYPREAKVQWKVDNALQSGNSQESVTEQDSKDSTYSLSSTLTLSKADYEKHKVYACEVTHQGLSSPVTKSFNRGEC
notes: germlined variant of Abcs35
B10: Abcs35-C (antibody, human IgG1, kappa)
heavy: B1 heavy with D82E
light: B4 light
notes: germlined variant of Abcs35
B11: Abcs35-D (antibody, human IgG1, kappa)
heavy: B1 heavy with T77S, D82E
light: B4 light
notes: germlined variant of Abcs35
B12: Abcs35-N (antibody, human IgG1, kappa)
heavy: B1 heavy with E1Q, D82E
light: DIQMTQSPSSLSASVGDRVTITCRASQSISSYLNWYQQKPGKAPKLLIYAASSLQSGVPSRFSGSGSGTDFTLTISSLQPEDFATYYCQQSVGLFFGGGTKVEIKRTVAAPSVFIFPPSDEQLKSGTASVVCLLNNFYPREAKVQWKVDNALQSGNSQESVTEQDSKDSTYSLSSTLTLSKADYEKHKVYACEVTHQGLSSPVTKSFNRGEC
notes: germlined variant of Abcs35
B13: Abcs35-G (antibody, human IgG1, kappa)
heavy: B1 heavy with E1Q, D82E
light: B4 light
notes: germlined variant of Abcs35
B14: Abcs35-L (antibody, human IgG1, kappa)
heavy: B1 heavy with E1Q
light: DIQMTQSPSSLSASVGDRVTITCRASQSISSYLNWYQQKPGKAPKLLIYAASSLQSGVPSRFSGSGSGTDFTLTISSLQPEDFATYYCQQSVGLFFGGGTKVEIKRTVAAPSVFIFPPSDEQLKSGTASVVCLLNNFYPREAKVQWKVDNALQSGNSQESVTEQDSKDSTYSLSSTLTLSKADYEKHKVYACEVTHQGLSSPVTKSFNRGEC
notes: germlined variant of Abcs35

Biological target: T1, Terbium (Tb) labeled-SNAP tagged ROBO2 …
Assay: HTRF competition, competitor d2-SLIT2-N, ROBO2 HEK293 cells
Protocol: A ROBO2-SLIT2-N homogenous time resolved fluorescence (HTRF) assay was used to identify antibodies that were capable of blocking SLIT2-N binding to ROBO2. In this assay, terbium (Tb) labeled-SNAP tagged ROBO2 expressing HEK293 cells were incubated with 5 nM d2-labeled SLIT-2N in the presence of 1 nM anti-ROBO2 antibodies for 1 hour. After incubation, fluorescence at 665 nm and 620 nm was measured on an Envision multilabel plate reader. […] Maximal signal was defined as the HTRF ratio of Tb-labeled ROBO2 cells with d2-labeled SLIT2-N in the absence of antibody, the minimum signal was defined as the HTRF ratio of Tb-labeled ROBO2 expressing HEK293 cells only. One nanomolar (nM) parental antibody, 93H2, was unable to block the HTRF assay, therefore this concentration was selected to identify clones with a higher affinity than 93H2 (Table 2, HTRF Ratio column). […] Antibodies derived from chain (Abcs series) or CDR shuffling (CTIR-2 series) were evaluated in 11-point, 5-fold dilution series with a top concentration of 1500 nM (Table 2 HTRF IC₅₀).
Neutralization of SLIT2-N binding to ROBO2 was assessed ROBO2:SLIT2-N homogenous time resolved fluorescence (HTRF) assay as described in Example 2. Briefly the HTRF assay was performed as follows: terbium (Tb) labeled-SNAP tagged ROBO2 expressing HEK293 cells were incubated with d2-labeled SLIT-2N in the presence of anti-ROBO2 antibodies for 1 hour. After incubation, fluorescence at 665 nm and 620 nm was measured on an Envision multi-label plate reader. […] Maximal signal was defined as the HTRF ratio of Tb-labeled ROBO2 cells with d2-labeled SLIT2-N in the absence of antibody, the minimum signal was defined as the HTRF ratio of Tb-labeled ROBO2 expressing HEK293 cells only.

Row | IC50 [nM] | Binder
1 | 0.0728 | B1
2 | 0.0591 | B2
3 | 0.0752 | B3
4 | 0.0651 | B4
5 | 0.0766 | B5
6 | 0.0745 | B6
7 | 0.0829 | B7
8 | 0.0765 | B8
9 | 0.0624 | B9
10 | 0.074 | B10
11 | 0.0639 | B11
12 | 0.0903 | B12
13 | 0.0754 | B13
14 | 0.0796 | B14

Biological target: T2, Human ROBO2 Ig1-Ig2-His
Assay: SPR, antibody on CM5 chip, ROBO2 Ig1-Ig2-His
Protocol: Based upon several criteria, Abcs25 and Abcs35 were selected for further characterization. Using flow cytometry, improvement in the binding EC₅₀ to human ROBO2 relative to the parental 93H2 was evaluated. Starting at 6.7 nM, 11-point, 3-fold dilution series were made for each antibody and used to stain HEK293 overexpressing human ROBO2 as described above for the ROBO2 fold selectivity (Example 2). […] In addition to measuring improved binding to human ROBO2, it was important to ensure that high affinity binding to both cynomolgus monkey ROBO2 and rat ROBO2 was maintained. Using HEK293 cells overexpressing either cynomolgus monkey ROBO2 or rat ROBO2, the relative dose-dependent binding of 93H2, Abcs25 and Abcs35 was evaluated as described above. High affinity binding to both cynomolgus monkey and rat ROBO2 was maintained in Abcs25 and Abcs35 (Table 4). […] Briefly, Abcs35 was immobilized to 300 resonance units (RU) on a CM5 chip. Association of ROBO2 Ig1-Ig2-His (ROBO2) was measured over 5 minutes and dissociation was followed for a period of 10 minutes.
Affinity was measured by standard SPR methods as described in Example 3. Briefly, antibodies were immobilized to a specific measure of resonance units (RU) on a CM5 chip. Association of ROBO2 Ig1-Ig2-His (ROBO2) and dissociation will be followed for a period of time.

Row | Kd [nM] | Binder
15 | 0.099 | B1
16 | 0.217 | B2
17 | 0.142 | B3
18 | 0.128 | B4
19 | 0.194 | B5
20 | 0.145 | B6
21 | 0.194 | B7
22 | 0.123 | B8
23 | 0.217 | B9
24 | 0.0821 | B10
25 | 0.125 | B11
26 | 0.146 | B12
27 | 0.131 | B13
28 | 0.149 | B14
